± gives the standard error. Fewer inactive variants are shown than the library holds.
B1: glmS ribozyme (parent)
chain: AUAAAAGCGCCAGAACUACAGAAAUGUAGUUGACGAGGAGGAGGUUUAUCGAAUUUUCGGCGGAUGCCUCCAAA

What was measured:
Details in all cases: with glucosamine-6-phosphate
glucosamine-6-phosphate [1] = variants of: B1; experiment: self-cleavage kobs at 40 uM GlcN6P; higher = faster cleavage; RNA array
In short: (§1)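 Glucosamine-6-phosphate, from 40 μM to 10 mM in HEPES/KCl/Mg(OAc)2 buffer, was flowed over sequenced MiSeq chips carrying barcoded ribozyme variants transcribed in situ by E. coli RNA polymerase. A hybridised Cy3 probe tracked the variants at 37 °C as tiles were imaged over ~14 h. kobs, kcat and KM were obtained by fitting normalised per-tile medians to exponential decays and then applying weighted Michaelis–Menten fits across concentrations.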

glucosamine-6-phosphate [2] = variants of: B1; experiment: self-cleavage kobs at 160 uM GlcN6P; higher = faster cleavage; RNA array
In short: as §1

glucosamine-6-phosphate [3] = variants of: B1; experiment: self-cleavage kobs at 640 uM GlcN6P; higher = faster cleavage; RNA array
In short: as §1

glucosamine-6-phosphate [4] = variants of: B1; experiment: self-cleavage kobs at 2500 uM GlcN6P; higher = faster cleavage; RNA array
In short: as §1

glucosamine-6-phosphate [5] = variants of: B1; experiment: self-cleavage kobs at 10000 uM GlcN6P; higher = faster cleavage; RNA array
In short: as §1

Row | Variant | self-cleavage kobs at 40 uM GlcN6P (glucosamine-6-phosphate [1]) | self-cleavage kobs at 160 uM GlcN6P (glucosamine-6-phosphate [2]) | self-cleavage kobs at 640 uM GlcN6P (glucosamine-6-phosphate [3]) | self-cleavage kobs at 2500 uM GlcN6P (glucosamine-6-phosphate [4]) | self-cleavage kobs at 10000 uM GlcN6P (glucosamine-6-phosphate [5])
1 | U47G C67A | 0.000123 ± 1.8e-05 s⁻¹ | 0.000171 ± 3.2e-05 s⁻¹ | 0.000788 ± 0.00013 s⁻¹ | 0.000691 ± 0.00014 s⁻¹ | 0.00198 ± 0.00048 s⁻¹
2 | C10A C16U | < 1e-05 s⁻¹ | < 1e-05 s⁻¹ | < 1e-05 s⁻¹ | – | –
3 | C11G U31G | < 1e-05 s⁻¹ | – | < 1e-05 s⁻¹ | – | –
4 | C50G U54G G60A C70G | < 1e-05 s⁻¹ | – | < 1e-05 s⁻¹ | – | –
5 | G38U G51U U54G G66A | < 1e-05 s⁻¹ | – | – | – | –
6 | A33G G63A | < 1e-05 s⁻¹ | < 1e-05 s⁻¹ | – | – | < 1e-05 s⁻¹
7 | A14U G32C U45A U47G | < 1e-05 s⁻¹ | – | – | – | 3.36e-05 ± 1.4e-05 s⁻¹
8 | G29A U69C | 6.51e-05 ± 1.6e-05 s⁻¹ | 7e-05 ± 1.3e-05 s⁻¹ | 0.000122 ± 2.2e-05 s⁻¹ | 0.000105 ± 1.6e-05 s⁻¹ | 0.000486 ± 0.00013 s⁻¹
9 | G38A U56C | < 1e-05 s⁻¹ | < 1e-05 s⁻¹ | < 1e-05 s⁻¹ | – | < 1e-05 s⁻¹
10 | C16U A36G | < 1e-05 s⁻¹ | < 1e-05 s⁻¹ | < 1e-05 s⁻¹ | – | –
11 | U46C A64C | < 1e-05 s⁻¹ | – | – | < 1e-05 s⁻¹ | < 1e-05 s⁻¹
12 | C50G C58A | 5.49e-05 ± 1.6e-05 s⁻¹ | 0.000151 ± 4.4e-05 s⁻¹ | 0.000175 ± 4.4e-05 s⁻¹ | 0.000194 ± 3.7e-05 s⁻¹ | 3.98e-05 ± 1.7e-05 s⁻¹
13 | G7U G32A | < 1e-05 s⁻¹ | < 1e-05 s⁻¹ | < 1e-05 s⁻¹ | < 1e-05 s⁻¹ | < 1e-05 s⁻¹
14 | G43C G59U | < 1e-05 s⁻¹ | < 1e-05 s⁻¹ | < 1e-05 s⁻¹ | < 1e-05 s⁻¹ | < 1e-05 s⁻¹
15 | G7U A53U U57A | < 1e-05 s⁻¹ | – | – | – | –
16 | G60C A64C | < 1e-05 s⁻¹ | < 1e-05 s⁻¹ | < 1e-05 s⁻¹ | < 1e-05 s⁻¹ | < 1e-05 s⁻¹
17 | A33G A42G U46G U56A | < 1e-05 s⁻¹ | – | < 1e-05 s⁻¹ | < 1e-05 s⁻¹ | < 1e-05 s⁻¹
18 | U31A G32U A36U G59A | < 1e-05 s⁻¹ | – | – | – | < 1e-05 s⁻¹
19 | A53U G59C | < 1e-05 s⁻¹ | < 1e-05 s⁻¹ | < 1e-05 s⁻¹ | < 1e-05 s⁻¹ | < 1e-05 s⁻¹

— the supplement of paper PMC7125110
